Data from PMC546169.
Where two headings read alike, the source gives them in different places.

T1: Sac7d V26A (Sulfolobus acidocaldarius, UniProt P13123 1-66, V26A)
T1 sequence: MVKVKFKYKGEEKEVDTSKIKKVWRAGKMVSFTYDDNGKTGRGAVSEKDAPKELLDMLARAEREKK

T2: Sac7d M29F (Sulfolobus acidocaldarius, UniProt P13123 1-66, M29F)
T2 sequence: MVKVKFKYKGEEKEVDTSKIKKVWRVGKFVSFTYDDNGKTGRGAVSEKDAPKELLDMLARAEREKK

T3: Sac7d M29A (Sulfolobus acidocaldarius, UniProt P13123 1-66, M29A)
T3 sequence: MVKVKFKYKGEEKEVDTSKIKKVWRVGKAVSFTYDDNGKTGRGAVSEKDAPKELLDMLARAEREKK

T4: Sac7d V26A/M29A (Sulfolobus acidocaldarius, UniProt P13123 1-66, V26A;M29A)
T4 sequence: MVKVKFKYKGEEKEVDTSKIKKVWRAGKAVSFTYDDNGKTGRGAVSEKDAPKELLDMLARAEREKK

T5: Sac7d V26F/M29F (Sulfolobus acidocaldarius, UniProt P13123 1-66, V26F;M29F)
T5 sequence: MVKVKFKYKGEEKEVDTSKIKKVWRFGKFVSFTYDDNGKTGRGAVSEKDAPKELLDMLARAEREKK

B1: GTAATTAC duplex (dsDNA)
DNA 1: GTAATTAC
DNA 2: GTAATTAC
B2: GCGATiCGC duplex (dsDNA)
DNA 1: GCGAUCGC
DNA 2: GCGAUCGC
modifications: DNA with iodo derivative at position 5 (printed Ti; presumably iodo-dU)
B3: GCGATCGC duplex (dsDNA)
DNA 1: GCGATCGC
DNA 2: GCGATCGC
B4: GCGAUbrCGC duplex (dsDNA)
DNA 1: GCGAUCGC
DNA 2: GCGAUCGC
modifications: DNA with bromo-dU at position 5 of each strand

Legend:
Test in all cases: X-ray crystallography
Sac7d V26A = target: T1, Sac7d V26A
Sac7d M29F [1] = target: T2, Sac7d M29F
Sac7d M29A = target: T3, Sac7d M29A
Sac7d V26A/M29A [2] = target: T4, Sac7d V26A/M29A
Sac7d V26A/M29A [3] = target: T4, Sac7d V26A/M29A; remark: listed apart in the source
Sac7d V26F/M29F = target: T5, Sac7d V26F/M29F
Sac7d M29F [4] = target: T2, Sac7d M29F; remark: listed apart in the source
Sac7d V26A/M29A [5] = target: T4, Sac7d V26A/M29A; remark: listed apart in the source

Row | Binder | binding result (Sac7d V26A) | binding result (Sac7d M29F [1]) | binding result (Sac7d M29A) | other results
1 | B1 | binds | binds | binds | 
2 | B2 |  |  |  | binding result (Sac7d V26A/M29A [2]): binds
3 | B3 | binds |  | binds | binding result (Sac7d V26A/M29A [3]): binds; binding result (Sac7d V26F/M29F): binds; binding result (Sac7d M29F [4]): binds
4 | B4 |  | binds |  | binding result (Sac7d V26A/M29A [5]): binds
